The source of these data is article PMC7611158 (Molecular cancer therapeutics, 2019).

One assay concerns the target hJAG1 DSL-EGF1-3 protein (Homo sapiens, UniProt P78504). The experiment in a line: SPR.
The target of assay [1] is murine Jagged1 (mJag1), on transfected B16F10 cells (mouse, UniProt Q9QXX0). The experiment in a line: flow cytometry on cells.
Assay [2] concerns the target human JAGGED2 (hJAG2), on transfected HEK293 cells (Homo sapiens, UniProt Q9Y219). Description: flow cytometry on cells.
The target in assay [3] is human DLL4 (hDLL4), on transfected B16F10 cells (Homo sapiens, UniProt Q9NR61). Description: flow cytometry on cells.
Sequence of human DLL4 (hDLL4), on transfected B16F10 cells (Q9NR61 27-685, one chain of several): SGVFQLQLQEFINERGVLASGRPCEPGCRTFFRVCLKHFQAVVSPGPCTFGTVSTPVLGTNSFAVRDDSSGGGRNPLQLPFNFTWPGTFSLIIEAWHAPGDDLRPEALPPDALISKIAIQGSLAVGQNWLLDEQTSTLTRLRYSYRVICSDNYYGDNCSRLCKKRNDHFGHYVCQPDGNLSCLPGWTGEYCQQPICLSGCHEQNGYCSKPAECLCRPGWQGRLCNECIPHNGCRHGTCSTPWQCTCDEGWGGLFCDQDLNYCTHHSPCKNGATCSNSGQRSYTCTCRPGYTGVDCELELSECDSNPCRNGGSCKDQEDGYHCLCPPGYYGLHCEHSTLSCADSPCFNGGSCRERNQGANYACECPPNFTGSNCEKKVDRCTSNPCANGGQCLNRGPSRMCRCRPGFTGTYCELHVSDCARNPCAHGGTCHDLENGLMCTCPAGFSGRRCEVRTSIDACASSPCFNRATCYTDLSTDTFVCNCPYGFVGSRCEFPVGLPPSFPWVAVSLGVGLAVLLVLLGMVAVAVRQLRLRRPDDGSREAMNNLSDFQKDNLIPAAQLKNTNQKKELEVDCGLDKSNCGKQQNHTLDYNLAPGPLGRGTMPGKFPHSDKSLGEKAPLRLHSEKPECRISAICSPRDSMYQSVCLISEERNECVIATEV
In assay [4] the target is JAG1 (target of the affinity printed for hJ1-65Dv9) (UniProt P78504).
Sequence of JAG1 (target of the affinity printed for hJ1-65Dv9) (P78504 34-1218): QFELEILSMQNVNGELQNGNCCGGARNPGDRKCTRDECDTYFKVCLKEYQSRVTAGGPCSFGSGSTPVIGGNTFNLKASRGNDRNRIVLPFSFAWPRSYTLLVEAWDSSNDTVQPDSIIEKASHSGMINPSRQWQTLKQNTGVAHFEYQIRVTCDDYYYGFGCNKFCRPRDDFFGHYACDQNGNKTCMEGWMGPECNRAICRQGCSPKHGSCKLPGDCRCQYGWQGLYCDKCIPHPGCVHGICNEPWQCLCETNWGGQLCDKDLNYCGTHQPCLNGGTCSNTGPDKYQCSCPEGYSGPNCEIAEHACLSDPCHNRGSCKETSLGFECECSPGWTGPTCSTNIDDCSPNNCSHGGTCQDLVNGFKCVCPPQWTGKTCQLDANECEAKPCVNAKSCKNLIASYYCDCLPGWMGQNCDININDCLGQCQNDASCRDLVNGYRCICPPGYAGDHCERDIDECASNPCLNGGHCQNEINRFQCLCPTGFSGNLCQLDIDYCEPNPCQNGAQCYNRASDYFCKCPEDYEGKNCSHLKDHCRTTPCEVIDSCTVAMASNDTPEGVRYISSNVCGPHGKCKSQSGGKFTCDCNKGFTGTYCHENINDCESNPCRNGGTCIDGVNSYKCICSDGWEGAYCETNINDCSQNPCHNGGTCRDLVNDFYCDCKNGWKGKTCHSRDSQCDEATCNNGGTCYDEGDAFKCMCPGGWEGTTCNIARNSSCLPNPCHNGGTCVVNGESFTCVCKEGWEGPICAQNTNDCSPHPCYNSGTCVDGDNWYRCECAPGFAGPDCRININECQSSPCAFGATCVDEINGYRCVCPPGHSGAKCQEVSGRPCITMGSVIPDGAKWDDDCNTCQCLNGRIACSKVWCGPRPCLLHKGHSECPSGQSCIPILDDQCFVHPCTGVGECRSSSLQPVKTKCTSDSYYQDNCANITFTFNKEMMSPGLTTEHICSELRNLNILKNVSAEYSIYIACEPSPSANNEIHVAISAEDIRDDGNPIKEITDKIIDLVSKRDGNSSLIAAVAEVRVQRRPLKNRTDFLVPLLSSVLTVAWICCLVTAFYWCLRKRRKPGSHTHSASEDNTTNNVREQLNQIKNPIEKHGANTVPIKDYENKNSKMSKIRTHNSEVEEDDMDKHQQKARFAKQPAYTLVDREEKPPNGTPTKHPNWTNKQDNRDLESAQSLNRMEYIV

Sequence of hJAG1 DSL-EGF1-3 protein (P78504 185-335): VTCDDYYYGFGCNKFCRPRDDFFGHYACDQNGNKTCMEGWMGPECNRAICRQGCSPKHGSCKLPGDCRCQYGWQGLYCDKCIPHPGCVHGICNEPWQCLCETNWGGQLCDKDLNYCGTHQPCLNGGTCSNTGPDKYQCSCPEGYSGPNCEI
Sequence of human JAGGED2 (hJAG2), on transfected HEK293 cells (Q9Y219 24-1238): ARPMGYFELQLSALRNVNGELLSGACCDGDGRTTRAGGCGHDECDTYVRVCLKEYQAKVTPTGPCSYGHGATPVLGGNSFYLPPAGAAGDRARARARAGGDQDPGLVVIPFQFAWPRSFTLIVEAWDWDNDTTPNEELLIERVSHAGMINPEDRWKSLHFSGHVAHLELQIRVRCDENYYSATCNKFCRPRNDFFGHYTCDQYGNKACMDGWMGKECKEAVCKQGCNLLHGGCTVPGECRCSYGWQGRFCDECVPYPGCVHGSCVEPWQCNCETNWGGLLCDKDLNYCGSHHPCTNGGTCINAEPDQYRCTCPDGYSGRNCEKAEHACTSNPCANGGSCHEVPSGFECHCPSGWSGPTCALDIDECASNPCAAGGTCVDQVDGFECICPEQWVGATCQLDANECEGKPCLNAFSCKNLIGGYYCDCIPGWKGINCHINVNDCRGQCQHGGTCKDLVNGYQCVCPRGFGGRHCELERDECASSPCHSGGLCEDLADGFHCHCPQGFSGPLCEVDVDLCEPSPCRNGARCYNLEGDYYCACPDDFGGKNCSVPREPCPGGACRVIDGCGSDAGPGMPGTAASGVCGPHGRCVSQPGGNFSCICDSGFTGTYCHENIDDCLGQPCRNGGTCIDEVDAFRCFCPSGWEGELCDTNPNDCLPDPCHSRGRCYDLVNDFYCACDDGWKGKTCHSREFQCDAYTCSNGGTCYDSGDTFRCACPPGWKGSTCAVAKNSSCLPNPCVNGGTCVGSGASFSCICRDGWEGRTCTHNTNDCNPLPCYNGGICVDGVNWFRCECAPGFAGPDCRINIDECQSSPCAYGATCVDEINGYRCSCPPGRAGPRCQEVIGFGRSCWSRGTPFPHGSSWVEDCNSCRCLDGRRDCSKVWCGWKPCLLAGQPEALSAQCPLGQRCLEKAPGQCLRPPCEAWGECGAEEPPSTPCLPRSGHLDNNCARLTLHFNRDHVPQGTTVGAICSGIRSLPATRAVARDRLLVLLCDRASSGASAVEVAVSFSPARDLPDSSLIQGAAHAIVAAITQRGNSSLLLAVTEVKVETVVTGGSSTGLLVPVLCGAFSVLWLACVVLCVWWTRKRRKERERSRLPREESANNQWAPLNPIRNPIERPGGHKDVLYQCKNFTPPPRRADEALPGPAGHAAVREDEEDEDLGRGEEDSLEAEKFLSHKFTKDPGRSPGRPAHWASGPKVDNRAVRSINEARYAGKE
Sequence of murine Jagged1 (mJag1), on transfected B16F10 cells (Q9QXX0 34-1218, one chain of several): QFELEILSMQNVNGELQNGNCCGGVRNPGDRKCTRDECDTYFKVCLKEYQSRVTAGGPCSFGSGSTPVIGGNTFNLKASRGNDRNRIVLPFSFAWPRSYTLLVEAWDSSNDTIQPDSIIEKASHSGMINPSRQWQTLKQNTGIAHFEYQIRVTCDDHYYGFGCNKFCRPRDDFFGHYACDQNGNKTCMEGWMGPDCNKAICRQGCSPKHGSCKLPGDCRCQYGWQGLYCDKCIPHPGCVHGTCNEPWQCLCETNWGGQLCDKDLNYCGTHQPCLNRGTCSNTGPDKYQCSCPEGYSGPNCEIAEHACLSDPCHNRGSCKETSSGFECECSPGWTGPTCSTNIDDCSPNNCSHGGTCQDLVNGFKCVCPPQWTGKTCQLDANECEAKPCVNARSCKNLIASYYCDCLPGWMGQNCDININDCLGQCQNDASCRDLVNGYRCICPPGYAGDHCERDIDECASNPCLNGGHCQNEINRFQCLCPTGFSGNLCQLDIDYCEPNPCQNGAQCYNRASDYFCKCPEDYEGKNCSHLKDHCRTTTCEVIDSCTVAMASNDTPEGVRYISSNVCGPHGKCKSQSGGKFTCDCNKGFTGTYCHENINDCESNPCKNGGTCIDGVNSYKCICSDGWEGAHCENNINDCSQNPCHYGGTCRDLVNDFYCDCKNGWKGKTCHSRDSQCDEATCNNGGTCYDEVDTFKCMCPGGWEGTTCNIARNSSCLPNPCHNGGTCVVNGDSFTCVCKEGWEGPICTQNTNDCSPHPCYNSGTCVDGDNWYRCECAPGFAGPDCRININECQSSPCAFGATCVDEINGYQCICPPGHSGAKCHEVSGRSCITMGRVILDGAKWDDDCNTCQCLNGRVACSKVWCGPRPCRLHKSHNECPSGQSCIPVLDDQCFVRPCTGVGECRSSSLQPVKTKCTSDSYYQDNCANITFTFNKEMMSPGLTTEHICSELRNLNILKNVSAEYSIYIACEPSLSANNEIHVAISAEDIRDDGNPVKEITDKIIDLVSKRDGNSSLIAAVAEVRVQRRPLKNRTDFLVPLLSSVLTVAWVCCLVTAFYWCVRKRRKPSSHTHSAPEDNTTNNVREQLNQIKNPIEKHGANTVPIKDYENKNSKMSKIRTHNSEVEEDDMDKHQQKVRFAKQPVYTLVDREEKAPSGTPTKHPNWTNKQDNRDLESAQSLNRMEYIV

B1: J1-65D (antibody, V domains shown)
VH: QVQLQQPGAELVRPGASVKLSCKALGYTFTDYEMHWVKETPVHGLEWIGAIQPGGGGTAYNQKFKGKATLTADKSSSTAYMELSSLTSEDSAVYYCTRRGYDDYPFAYWGQGTLVTVSS
VL: DIQLTQSPASLSASVGETVTITCRASGNIHNYLAWYQQKQGKSPQLLVYNAKTLADDIPSRFSGSGSGTQYSLKINSLQPEDFGSYYCQHFWSAPWTFGGGTKLEIK
The molecule B1 had a dissociation constant (Kd) in the assay with hJAG1 DSL-EGF1-3 protein of 9.7 nM. For the same molecule, the binding result in assay [1], in assay [2] and in assay [3] was “no binding” in each case.

B2: J1-183D (antibody, V domains shown)
VH: QVQLQQPGTELVRPGVSVKISCKVSGYAFTDYAIHWIMQSHAKSLEWIGIINTYYGDSKYNQKFKDKATMTVDKSSNTAYMELARLTSEDSAIYYCARGYDGFAYWGQGTLVTVSS
VL: DIQLTQSPASLSASVGETVTFTCRTSENIYSYLTWYQQKQGKSPQLLVYNAKILAAGVPSRFSGYGSGTQFSLKINSLQPEDFGTYYCQHHYDIPWTFGGGTKLEIK
As for B2, in the assay with hJAG1 DSL-EGF1-3 protein, the Kd is 4.9 nM. Moreover, the binding result in assay [1], in assay [2] and in assay [3] was “no binding” throughout.

B3: hJ1-65Dv9 (antibody, V domains shown)
VH: QVQLVQSGAELKKPGSSVKVSCKASGYTFTDYEMHWVRQAPGQGLEWMGAIQPGGGGTAYNQKFKGRVTLTADKSTSTAYMELSSLRSEDTAVYYCTRRGYDDYPFAYWGQGTLVTVSS
VL: DIQMTQSPSSLSASVGDRVTITCRASGNIHNYLAWYQQKPGKAPKLLIYNAKTLADAVPSRFSGSGSGTDYTLTISSLQPEDFATYYCQHFWSAPWTFGQGTKLEIK
Molecule B3 had a Kd in assay [4] of 0.0139 nM.
